The target in this assay is epithelial Na+ channel (ENaC) on human bronchial epithelial cultures (human, UniProt P37088 1-669; P51168 1-640; P51170 1-649). The assay can be described thus: cell-based or functional assay.

Where no end group is shown, it is not given here. [ ]: non-standard residue; d: D form. Nle = CCCC[C@H](N)C(=O)O

Chain of epithelial Na+ channel (ENaC) on human bronchial epithelial cultures (P37088 whole entry, chain 1 of 3): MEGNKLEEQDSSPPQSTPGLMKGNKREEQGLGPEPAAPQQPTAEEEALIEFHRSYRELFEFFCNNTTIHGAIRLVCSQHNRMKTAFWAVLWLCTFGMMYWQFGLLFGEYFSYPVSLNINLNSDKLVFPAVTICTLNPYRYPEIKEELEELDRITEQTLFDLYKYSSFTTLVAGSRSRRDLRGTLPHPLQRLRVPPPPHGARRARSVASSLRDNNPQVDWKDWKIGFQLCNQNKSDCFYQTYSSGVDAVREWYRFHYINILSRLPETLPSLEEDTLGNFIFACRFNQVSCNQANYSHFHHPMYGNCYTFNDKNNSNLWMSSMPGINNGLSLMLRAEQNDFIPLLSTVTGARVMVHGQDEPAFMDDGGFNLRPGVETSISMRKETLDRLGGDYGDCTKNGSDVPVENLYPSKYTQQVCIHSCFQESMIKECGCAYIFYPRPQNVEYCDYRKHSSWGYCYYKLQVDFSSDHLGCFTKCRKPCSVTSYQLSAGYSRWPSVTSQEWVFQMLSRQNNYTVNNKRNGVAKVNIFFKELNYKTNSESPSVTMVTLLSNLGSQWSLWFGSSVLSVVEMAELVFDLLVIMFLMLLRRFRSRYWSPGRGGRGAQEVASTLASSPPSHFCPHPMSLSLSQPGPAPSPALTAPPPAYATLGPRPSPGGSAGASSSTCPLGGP
Chain of epithelial Na+ channel (ENaC) on human bronchial epithelial cultures (P51168 whole entry, chain 2 of 3): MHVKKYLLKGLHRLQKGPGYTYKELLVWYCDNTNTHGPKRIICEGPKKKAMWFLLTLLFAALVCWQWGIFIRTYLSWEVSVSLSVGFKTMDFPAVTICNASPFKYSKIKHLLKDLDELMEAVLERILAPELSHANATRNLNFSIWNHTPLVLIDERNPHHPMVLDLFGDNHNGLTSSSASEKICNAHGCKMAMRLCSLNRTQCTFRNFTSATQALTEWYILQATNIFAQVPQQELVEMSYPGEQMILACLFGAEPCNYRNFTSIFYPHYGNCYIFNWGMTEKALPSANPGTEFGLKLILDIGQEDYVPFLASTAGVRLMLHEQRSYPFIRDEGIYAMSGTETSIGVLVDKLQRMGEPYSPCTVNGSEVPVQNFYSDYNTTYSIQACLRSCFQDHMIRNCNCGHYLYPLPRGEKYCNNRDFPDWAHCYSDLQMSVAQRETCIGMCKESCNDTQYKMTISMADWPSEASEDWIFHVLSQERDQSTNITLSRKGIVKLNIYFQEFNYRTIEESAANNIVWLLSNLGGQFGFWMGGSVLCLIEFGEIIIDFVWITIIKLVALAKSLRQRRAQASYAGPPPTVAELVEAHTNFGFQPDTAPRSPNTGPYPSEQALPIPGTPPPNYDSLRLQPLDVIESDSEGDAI
Chain of epithelial Na+ channel (ENaC) on human bronchial epithelial cultures (P51170 whole entry, chain 3 of 3): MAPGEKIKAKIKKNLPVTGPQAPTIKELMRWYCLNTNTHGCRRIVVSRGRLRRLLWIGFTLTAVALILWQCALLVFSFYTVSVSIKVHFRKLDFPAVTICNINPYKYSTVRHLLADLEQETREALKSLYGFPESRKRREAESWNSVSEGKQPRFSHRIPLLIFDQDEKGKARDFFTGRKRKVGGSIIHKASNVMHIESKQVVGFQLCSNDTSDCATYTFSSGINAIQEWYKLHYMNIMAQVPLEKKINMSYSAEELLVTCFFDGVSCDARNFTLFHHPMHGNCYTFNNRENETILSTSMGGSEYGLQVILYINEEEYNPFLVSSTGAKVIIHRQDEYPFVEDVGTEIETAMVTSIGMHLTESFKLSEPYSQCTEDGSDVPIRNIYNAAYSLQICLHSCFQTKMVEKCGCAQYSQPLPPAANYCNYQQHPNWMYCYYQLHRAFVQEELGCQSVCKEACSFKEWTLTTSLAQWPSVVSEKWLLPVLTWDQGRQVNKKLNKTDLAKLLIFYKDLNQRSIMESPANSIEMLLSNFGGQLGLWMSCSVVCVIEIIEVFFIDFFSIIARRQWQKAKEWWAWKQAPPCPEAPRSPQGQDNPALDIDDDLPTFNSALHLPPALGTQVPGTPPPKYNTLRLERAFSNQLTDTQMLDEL

Regarding [dA][dA]LP[Nle]PLDQT[dA][dA] [aaLPNlePLDQTaa (SEQ ID NO:5)], the “IC50, dose response on airway cells (ASL height)” value is 30 nM.

The values above are taken from patent publication US20160102121A1 (UNIVERSITY OF NORTH CAROLINA AT CHAPEL HILL, published 2016).
